Source: patent publication US20250108100A1, “C-TERMINAL FRAGMENT OF APOLIPOPROTEIN E AND APPLICATION THEREOF IN INHIBITING y-SECRETASE ACTIVITY” (SYNPHATEC (SHANGHAI) BIOPHARMACEUTICAL TECHNOLOGY CO., LTD., priority 2022, published 2025)
“Also recorded” adds a separate entry of the source.

How the values were obtained:
[1] = test system: γ-secretase (PS1, PS2) knockout HEK 293T cells; assay: PS1 KO, PS2 KO and PS1/2 dKO HEK 293T cell lines: α-CTF and Aβ40; type: cell-based, human
Description: • a) A plasmid expressing the target protein in mammalian cells was constructed, and the protein expression promoter is CAG. • b) The target protein was expressed in HEK 293T cell line. Cells were subcultured one day before transfection, and transfection was performed when the degree of cell adhesion reached 70%-80%. The transfection reagent was lipofectamine2000 (ThermoFisher). • c) 4-6 hours post transfection, the medium were replaced with fresh cell culture medium. • d) 36-48 hours post transfection, the cells were lysed (10% 1M tris-HCl (pH=6.8), 4% SDS, 20% glycerol, 0.01% bromophenol blue), and the protein samples were collected and used for Western blot or stored in a −80° C. freezer. • e) Polyacrylamide gel electrophoresis. Before protein loading, the protein was boiled at 98° C. for 10 min, and then centrifuged at 12000 rpm for 10 min. Electrophoresis: 80V for the upper stacking gel; 120V for the lower separating gel. • f) Protein transfer. The filter paper was soaked in the electrophoresis solution before use, and the PVDF membrane was put in methanol for 10s to activate, and the gel after electrophoresis was taken out from the electrophoresis tank, put in the order of filter paper—PVD membrane—gel-filter paper from bottom to top, and they were put into the transfer instrument, with transferring in constant current at 0.1 A for 70 min. • g) Blocking and antibody incubation: the transferred PVDF membrane was placed in 5% BSA/TBST blocking solution, and blocked on a shaker at room temperature for 1 hour. The primary antibody was used to incubate at 4° C. overnight on a shaker (12-16 h); 1×TBST was used to wash three times, once every 10 minutes; the secondary antibody was used to incubate, shaked at room temperature for 1-2 h; 1×TBST was used to wash three times, once every 10 minutes. • h) Imaging by development: development was performed with ECL chemiluminescence hypersensitive chromogenic reagent.
The experiment was performed according to the standard procedure in the ELISA analysis kit of Invitrogen Company. • a) The target protein was expressed in HEK 293T cell line. Cells were subcultured one day before transfection, and transfection was performed when the degree of cell adhesion reached 70%-80%. The transfection reagent was lipofectamine2000 (ThermoFisher). • b) 4-6 hours post transfection, medium were replaced with fresh cell culture medium. • c) 36-48 hours post transfection, the cell culture medium was collected, and then the ELISA process was performed or the cell culture medium was frozen in a −80° C. refrigerator. • d) 50 μl of standard samples and experimental samples were added to each well of the 96-well plate. • e) 50 μl of human-derived Aβ40 or Aβ42 or mouse-derived Aβ40 detection antibody was added to each well of the 96-well plate. • f) The above samples were shaken gently and placed at room temperature for 3 hours. • g) The liquid in the well were removed, and the plate was washed 4 times with 1× wash buffer. • h) 100 μl of the buffer containing 1× anti-Rabbit IgG HRP was added. • i) The plate was shaken gently and placed at room temperature for […]. • j) The liquid in the well were removed, and the well was washed 4 times with 1× wash buffer. • k) 100 μl of Stabilized Chromogen was added to each well, and the plate was placed in the dark for 30 minutes at room temperature. • l) 100 μl of Stop Solution was added to each well. • m) The absorbance at 450 nm was measured with a microplate reader. 2.4 qRT-PCR […]

APPΔΔICD = assay: Aβ40 produced from APPΔΔICD co-expressed with BACE1 in HEK 293T cells (ELISA); type: cell-based, human
Description: The experiment was performed according to the standard procedure in the ELISA analysis kit of Invitrogen Company. • a) The target protein was expressed in HEK 293T cell line. Cells were subcultured one day before transfection, and transfection was performed when the degree of cell adhesion reached 70%-80%. […]
48 hours after transfection of HEK 293T cells and N2A cells, or 4.5 days after lentivirus infection of neurons, media and lysates were collected. Aβ40 and Aβ42 in the culture medium and cell lysates were detected by an Aβ ELISA kit as indicated in the protocol. […]

B1: ApoE CT: C-terminal fragment of ApoE, positions 216-299 of SEQ ID NO: 12; SEQ ID NO: 33 (protein)
chain: ARMEEMGSRTRDRLDEVKEQVAEVRAKLEEQAQQIRLQAEAFQARLKSWFEPLVEDMQRQWAGLVEKVQAAVGTSAAPVPSDNH
Aβ40 in PS1/2 dKO cells supplemented with PS2 ([1]; ELISA): can reduce Aβ40; also recorded: significantly reduced Aβ40 | α-CTF in PS1/2 dKO cells ([1]; PS1 and PS2 double knockout HEK 293T cells): does not further increase α-CTF; also recorded: did not further increase α-CTF levels | α-CTF in PS1 KO cells ([1]; PS1 single knockout HEK 293T cells): still able to increase α-CTF | α-CTF in PS2 KO cells ([1]; PS2 single knockout HEK 293T cells): still able to increase α-CTF | α-CTF in PS1/2 dKO cells supplemented with PS1 or PS2 ([1]; rescued expression of PS1 or PS2): can significantly increase α-CTF; also recorded: again significantly increased α-CTF | Aβ40 produced by APPΔΔICD (APPΔΔICD): no longer reduces Aβ produced by APPΔΔICD; also recorded: does not affect Aβ40; also recorded: failed to reduce Aβ40
